{
  "source": "paper PMC8092228",
  "about": "(mBio, 2021)",
  "molecular_target": "LOV-PAS-HK construct of Brucella abortus LOV-HK (residues 15 to 489), called the full-length protein (Brucella abortus)",
  "assay": "SEC with static light scattering (SEC-SLS)",
  "data": [
    {"substance": "LOV-PAS-HK construct of Brucella abortus LOV-HK (residues 15 to 489), called the full-length protein (enzyme)", "values": [
      {"measurement": "stoichiometry N", "result": 2}
    ]}
  ]
}
